Target: mGlu5-NanoLuc (UniProt P31424)
Test: FRET or BRET; intermolecular BRET imaging in live hippocampal neurons expressing mGlu5-NanoLuc (donor) and Venus-Homer (acceptor); recorded for 30 min in soma and dendritic spines; control KCl 3 mM, and before and during depolarization with KCl 55 mM

Chain of UniProt P31424 (P31424 21-1203): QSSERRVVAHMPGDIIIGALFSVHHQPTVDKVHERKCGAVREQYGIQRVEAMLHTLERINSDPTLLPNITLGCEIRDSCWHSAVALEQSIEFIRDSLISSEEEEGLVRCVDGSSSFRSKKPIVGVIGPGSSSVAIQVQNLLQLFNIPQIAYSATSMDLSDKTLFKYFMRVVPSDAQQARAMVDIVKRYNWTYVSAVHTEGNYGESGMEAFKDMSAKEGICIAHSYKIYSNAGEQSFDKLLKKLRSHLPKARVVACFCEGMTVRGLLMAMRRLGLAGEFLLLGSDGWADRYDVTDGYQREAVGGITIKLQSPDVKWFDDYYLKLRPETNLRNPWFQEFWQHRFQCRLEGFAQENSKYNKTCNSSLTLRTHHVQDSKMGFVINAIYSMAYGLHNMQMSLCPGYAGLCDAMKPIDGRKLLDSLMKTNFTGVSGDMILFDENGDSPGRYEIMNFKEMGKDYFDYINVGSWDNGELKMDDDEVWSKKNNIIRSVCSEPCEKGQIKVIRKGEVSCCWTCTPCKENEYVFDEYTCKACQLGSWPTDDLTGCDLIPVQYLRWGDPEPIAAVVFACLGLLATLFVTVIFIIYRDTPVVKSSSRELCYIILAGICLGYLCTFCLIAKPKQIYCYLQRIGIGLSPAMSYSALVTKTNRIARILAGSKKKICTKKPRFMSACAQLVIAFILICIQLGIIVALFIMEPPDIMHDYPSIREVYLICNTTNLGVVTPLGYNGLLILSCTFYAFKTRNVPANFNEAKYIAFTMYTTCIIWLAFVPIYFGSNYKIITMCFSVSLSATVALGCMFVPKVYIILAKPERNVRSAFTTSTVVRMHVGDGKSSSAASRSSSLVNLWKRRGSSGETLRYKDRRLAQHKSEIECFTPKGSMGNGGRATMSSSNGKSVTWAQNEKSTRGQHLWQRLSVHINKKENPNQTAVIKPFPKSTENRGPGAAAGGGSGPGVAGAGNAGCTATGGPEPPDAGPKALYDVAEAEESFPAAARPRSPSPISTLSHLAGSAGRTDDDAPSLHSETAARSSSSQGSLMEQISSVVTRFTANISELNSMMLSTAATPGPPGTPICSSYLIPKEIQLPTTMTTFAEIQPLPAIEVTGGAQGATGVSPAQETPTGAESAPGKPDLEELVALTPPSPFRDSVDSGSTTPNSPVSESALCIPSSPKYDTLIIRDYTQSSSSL

drop of BRET signal with KCl 55 mM against before depolarization (soma): 15%
drop of BRET signal with KCl 55 mM against before depolarization (spines): 16%
Substance: Venus-Homer (from UniProt Q9Z214 1-366) (natural protein)

Reference: publication PMC5767221
